Measurements: patent US20160251419A1 (ROCKEFELLER UNIVERSITY, published 2016)

Legend:
[1] = target: Recombinant Aβ1-42 (rAβ1-42 peptides) in the Thioflavin T fibril formation assay (UniProt P05067 672-713); assay: cell-based or functional assay
[2] = target: T1, amyloid-β Aβ(M1-42) peptide, structures along the aggregation pathway (Aβ1-42 protofibrils); assay: dot blot of aggregation time points (FIG. 18)
T1 construct: Expressed in E. coli
Source text: (A) Aβ₁₋₄₂ aggregation in a thioflavin T fluorescence assay guided sample collection (red circles) for a dot blot assay. (B) Samples from these time points were spotted on PVDF membranes and blotted with an anti-Aβ mAb to detect total Aβ₁₋₄₂, or with 4a8.e11, 3f2.e10, or 7b6.b12. (C) Bar graph showing quantitation of 4a8.e11 reactive material at indicated timepoints. (D) Bar graph showing quantitation of 3f2.e10 reactive material at indicated timepoints. (E) Bar graph showing quantitation of 7b6.b12 reactive material at indicated timepoints. The spots were quantified with ImageJ and normalized to total Aβ₁₋₄₂.
For kinetic experiments, aliquots of the purified Aβ42 were resuspended in 6M guanidinium hydrochloride and subjected to gel filtration on a Superdex Peptide column in 20 mM sodium phosphate buffer, pH 8, with 200 μM EDTA. The monomer-containing peak was then lyophilized and subjected to a second round of resuspension in 6M guanidinium hydrochloride and gel filtration on a Superdex Peptide column in 20 mM sodium phosphate buffer, pH 8, with 200 μM EDTA. […] Fluorescence measurements were made at regular intervals using FlexStation III (Molecular Devices) with excitation and emission at 440 and 480 nm, respectively. Each experimental point is the mean of the fluorescence signal of 6 wells containing aliquots of the same solution. […]

Sequence of Recombinant Aβ1-42 (rAβ1-42 peptides) in the Thioflavin T fibril formation assay (P05067 672-713 limits assumed): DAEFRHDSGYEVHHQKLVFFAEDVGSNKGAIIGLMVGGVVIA
T1 sequence (peptide, as listed by the source): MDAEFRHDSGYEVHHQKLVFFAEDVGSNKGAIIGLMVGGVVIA

Binder	T50 (time in minutes for 50% inhibition of fibril formation) [1] [min]	binding result [2]
monoclonal antibody 4a8.e11 (antibody, V domains shown, Mouse hybridoma mAb raised against NUCB1-capped hIAPP protofibrils; kappa light chain; also called mAb 4a8.e11) VH: EVQLQESGGGLVKPGGSLKLSCAASGFTFSDYGMHWVRQAPEKGLEWVAYISSGSSTVYCADTVKGRFTISRDNAKNTLFLQMTSLRSEDTAMYYCARRWGYFDYWGQGTTLTVSS VL: DIKMTQSPSSMYASLGERVTFTCKASQDINSFLSWFQQKPGKSPKTLIYRANRLVDGVPSRFSGSGSGQDYSLTITSLEFEDMGIYYCLQYDEFPYTFGGGTKLEIK	37.9	binds
monoclonal antibody 5a8.b11 (antibody, V domains shown) VH: EVQLQESGPELVKPGASVKIPCKASGYTFTDYNMDWVKQSHGKSLEWIGDINPNNGGTIYNQKFKGKATLTVDKSSSTAYMELRSLTSEDTAVYYCARKGERGFDYWGQGTTLTVSS VL: ENVLTQSPAIMSASLGEKVTMSCRASSSVNYMYWYQQKSDASPKLWIYYTSNLAPGVPARFSGSGSGNSYSLTISSMEGEDAATYYCQQFTSSPSTFGAGTKLELK	40.3	–
monoclonal antibody 5c9.a2 (antibody, V domains shown) VH: EVQLQESGPVLVKPGASVKMSCKASGYTFTDYYMNWVKQSHGKSLEWIGVINPYNGGTSYNQKFKGKATLTVDKSSSTAYMELNSLTSEDSAVYYCASLRRRTDYFDYWGQGTTLTVSS VL: DIVMTQSHKFMSTSVGDRVSITCKASQDVGTAVAWYQQKPGQSPKLLIYWASTRHTGVPDRFTGSGSGTDFTLTISNVQSEDLADYFCQQYSSYPLTFGAGTKLELK	43.2	–
monoclonal antibody 7b6.b12 (antibody, V domains shown, Mouse hybridoma mAb raised against NUCB1-capped hIAPP protofibrils; kappa light chain; also called mAb 7b6.b12) VH: EVQLQESGAELVKPGASVKISCKVSGYTFTDHTIHWMKQRPEQGLEWIGYIYPRDGSTKYNEKFKGKATLTADKSSSTAYMQLNSLTSEDSAVYFCARPYDYAWFAYWGQGTLVTVSA VL: DILLTQSPAILSVSPGERVSFSCRASQSIGTSIHWYQQRTNGSPRLLIKYASESISGIPSRFSGSGSGTDFTLSINSVESEDIADYYCQQSNSWPFTFGSGTKLEIK	40.2	binds
monoclonal antibody 4b1.h9 (antibody, V domains shown) VH: EVQLQESGPVLVKPGASVKMSCKASGYTFTDYYMNWVKQSHGKSLEWIGVINPYNGGTSYNQKFKGKATLTVDKSSSTAYMELNSLTSEDSAVYYCARRRGYAMDYWGQGTSVTVSS VL: DIQMTQSPASLSASVGETVTITCRASENIYSYLAWYQQKQGKSPQLLVYNAKTLAEGVPSRFSGSGSGTQFSLKINSLQPEDFGSYYCQHHYGTPYTFGGGTNLEIK	60.7	–
monoclonal antibody 3f2.e10 (antibody, V domains shown) VH: EVQLQESGGGLVQPKGSLKLSCAASGFSFNTYAMNWVRQAPGKGLEWVARIRSKSNNYATYYADSVKDRFTISRDDSESMLYLQMNNLKTEDTAMYYCVRLGAMDYWGQGTSVTVSS VL: DIVMTQSQKFMSTSVGDRVSVTCKASQNVGTNVAWYQQKPGQSPKALIYSASYRYSGVPDRFTGSGSGTDFTLTISNVQSEDLAEYFCQQYNSYPLTFGAGTKLEL	42.6	–
